Data published in publication PMC3177862, “Characterization of the Biosynthesis, Processing and Kinetic Mechanism of Action of the Enzyme Deficient in Mucopolysaccharidosis IIIC” (PLoS ONE, 2011).

What was measured:
[1] = substrate: CC(=O)SCCNC(=O)CCNC(=O)[C@H](O)C(C)(C)COP(=O)(O)OP(=O)(O)OC[C@H]1O[C@@H](n2cnc3c(N)ncnc32)[C@H](O)[C@@H]1OP(=O)(O)O; assay: coupled fluorescence assay with beta-hexosaminidase (4-methylumbelliferone release), Michaelis-Menten fit; assay type: biochemical, Homo sapiens; details: MU-GlcNH2 fixed at 1 mM, CP buffer pH 5.5, 37 °C, liposomes with 20% PI, random sequential ternary-complex mechanism
Source text: (§1) coupled fluorescence assay with beta-hexosaminidase (4-methylumbelliferone release), Michaelis-Menten fit on N-acetyltransferase-His8Flag (heparin acetyl-CoA:alpha-glucosaminide N-acetyltransferase)

[2] = substrate: Cc1cc(=O)oc2cc(O[C@@H]3O[C@H](CO)[C@@H](O)[C@H](O)[C@H]3N)ccc12; assay: as above; assay type: biochemical, Homo sapiens; details: acetyl-CoA fixed at 2 mM, CP buffer pH 5.5, 37 °C, liposomes with 20% PI, random sequential ternary-complex mechanism
Source text: as §1

B1: N-acetyltransferase-His8Flag (heparin acetyl-CoA:alpha-glucosaminide N-acetyltransferase) (Homo sapiens) (protein)
chain: RDAQAAPPRDLDKKRHAELKMDQALLLIHNELLWTNLTVYWKSECCYHCLFQVLVNVPQSPKAGKPSAAAASVSTQHGSILQLNDTLEEKEVCRLEYRFGEFGNYSLLVKNIHNGVSEIACDLAVNEDPVDSNLPVSIAFLIGLAVIIVISFLRLLLSLDDFNNWISKAISSRETDRLINSELGSPSRTDPLDGDVQPATWRLSALPPRLRSVDTFRGIALILMVFVNYGGGKYWYFKHASWNGLTVADLVFPWFVFIMGSSIFLSMTSILQRGCSKFRLLGKIAWRSFLLICIGIIIVNPNYCLGPLSWDKVRIPGVLQRLGVTYFVVAVLELLFAKPVPEHCASERSCLSLRDITSSWPQWLLILVLEGLWLGLTFLLPVPGCPTGYLGPGGIGDFGKYPNCTGGAAGYIDRLLLGDDHLYQHPSSAVLYHTEVAYDPEGILGTINSIVMAFLGVQAGKILLYYKARTKDILIRFTAWCCILGLISVALTKVSENEGFIPVNKNLWSLSYVTTLSSFAFFILLVLYPVVDVKGLWTGTPFFYPGMNSILVYVGHEVFENYFPFQWKLKDNQSHKEHLTQNIVATALWVLIAYILYRKKIFWKI
notes: full length 635 aa with C-terminal His8-Flag tag kept; stably expressed in HeLa cells, DDM extract, anti-Flag purified; signal peptide cleaved; mix of 62 kDa precursor and processed alpha (Lys43-Asn144, N-terminus KKRHAE) and beta (Gly145-Ile635, N-terminus GVSEIA) chains; native about 80 kDa, monomer
Km [1]: 500 ± 20 µM
Vmax [1]: 6.33 µmol/min/mg
kcat [1]: 7.33 ± 0.1 s⁻¹
Km [2]: 450 ± 90 µM
Vmax [2]: 9 µmol/min/mg
kcat [2]: 10.4 ± 1.14 s⁻¹
